Here are results for 41 sequences from the nanobody polyreactivity screen of Harvey et al. (2022).

This data set is described as follows: yeast display, Sf9 membrane polyspecificity reagent, FACS + sequencing; frameworks hold sequencing errors. The essentials: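 Synthetic nanobody libraries on Saccharomyces cerevisiae BJ5465 were galactose-induced for 36–48 hours, stained 1 hour at 4 °C with 10% biotinylated, detergent-solubilized Sf9 membrane reagent and enriched on streptavidin microbeads. FACS then separated cells into low and high (top ~1%) gates by anti-HA (expression) and streptavidin (reagent binding) fluorescence. Genes were colony-PCR amplified, MiSeq 2 × 250 sequenced and CDR-length filtered. A clone's polyreactivity label is that of its gate of origin.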
Take “QVQLVESGGGLVQAGGSLRLSCAPSGSIFYSYAMVWYRQAPGKERELVASISRGGTTYYADSVKGRFTISRDNAKNTVYLQMNSLKPEDTAVYYCAAELSEWTNGFDYWGQGTQVTVSS”: the “polyreactivity (PSR sort gate)” value is given as “high polyreactivity”.
To “QVQLVESGGGLVQAGGSLRLSCAPSGSISFSNALGWYRQAPGKERELVASITSGGSTKYADSVKGRFTFSRDNAKNTVYLQMNSLQPEDTAVYYCNADSPESVYDEYDYWGQGTQVTVSS” belongs “low polyreactivity”; to “QVQLVESGGGLVQAGGSLRLSCAPSGSSKLMLWDGIDRRLGKKGSWLPLFVLVVLRNYADSVKGRFTISRDNANNTVYLQMNSLKPEDTAVYYCAATPIGSGGWGDYWGQGTQVTVSS”, “low polyreactivity”.
Consider “QVQLVESGGGLVQAGGSLRLSCAPSGSTFTINVMGWYRQAPGKERELVAAINGGGRTNYADSVKGRFTISRDNAKNTVYLQINSLIPEDTAVYYCAADGLSNVRQMDYWGQGTQVTVSS”, for which the “polyreactivity (PSR sort gate)” value was “low polyreactivity”.
Take “QVQLVESGGGLVQAGGSLRLSCAPSGSTFYPYAMGWYRQAPGKERELVAAISSGGSTYYADSVKGRFTISRDNAKNTVYLQMNSLKPEDTAVYYCAADFYYAYYWGQGTQVTVSS”: the “polyreactivity (PSR sort gate)” value is “low polyreactivity”.
As to “QVQLVESGGGLVQAGGSLRLSCAPSGSTFYSNAMGWYRQAPGKERELVASISWSSGSTYYADSVKGRFTISRDNAKNTVYLQMNSLKPEDTAVYYCNKRPVILYDYWGQGTQVTVSS”, the “polyreactivity (PSR sort gate)” value is recorded as “low polyreactivity”.
As for “QVQLVESGGGLVQAGGSLRLSCAPSGSTFYSYAMGGYRQAPGKERELVAAITVSGTSTYYADSVKGRFTISRDNAKNTVYLQMNSLKPEDTAVYYCAARPRRRYYGYDSWGQGTQVTVSS”, the “polyreactivity (PSR sort gate)” value is given as “high polyreactivity”.
Turning to “QVQLVESGGGLVQAGGSLRLSCAPSGSTLFYNAMGCYRQSPGKETELVATISGGGVSTYYADSVNGRFRISRDNAKNSVYLQMYSLKPEDTAVYYCAAAGWSEGGYDYWGQGTQVTVSS”, the “polyreactivity (PSR sort gate)” value is “low polyreactivity”.
As for “QVQLVESGGGLVQAGGSLRLSCAPSGSTSFSNDMGWYRQAPGKERELVAAIRSGGSTDYADSVKGRFTISRDNAKNTVYLQMNSLKPEDTEVYYFNATQYDAVYPGYARLYDYWGQGTQVTVSS”, the “polyreactivity (PSR sort gate)” value is “low polyreactivity”.
As to “QVQLVESGGGLVQAGGSLRLSCAPSGSTYSRYAMGWYRQAPGKERELVAAISRSGGTTNYADSVKWRFTISRDNAKNTVYLQMNSLKPEDTAVYYCAAYLPFRQGRYGYEYWGQGTQVTVSS”, the “polyreactivity (PSR sort gate)” value was “high polyreactivity”.
To “QVQLVESGGGLVQAGGSLRLSCAPSGYIPYWYAMGWYRQAPGKERELVAAIDWSGASTNYADSVKGRFTISRDNAKNTVYLQMNSLKPEDTAVYYCAADAVSPDYFVWGDYWGQGTQVTVSS” belongs “high polyreactivity”.
For “QVQLVESGGGLVQAGGSLRLSCAPSVSINNHYAMGWYRQAPGKERELVAAISRSGGLTYYADSVKGRFTISRDNAKNTVYLQMNCLIAEDTAVYYCDAGTSWPWYQRDYWGQGTQVTVSS”, the “polyreactivity (PSR sort gate)” value is given as “low polyreactivity”.
For “QVQLVESGGGLVQAGGSLRLSCASGLTFYRYAMGWYRQAPGKERELVAAINVRGGSTYYADSVKGRFTISRDNAKNTVYLQMNSLKPEETAVYYCAAYYPGFSYRYDYWGQGTQVTVSS”, the “polyreactivity (PSR sort gate)” value is listed as “low polyreactivity”.
To “QVQLVESGGGLVQAGGSLRLSCASSGFIFASYAMGWYRQAPGKERELVAAISYRGGTTYYADSVKGRFTISRDNAKNTVYLQMNSLKPEDTAVYYCAADSPENRYNYWGQGTQVTVSS” belongs “high polyreactivity”.
Consider “QVQLVESGGGLVQAGGSLRLSCASSGFIFPLYAMGWYRQAPGKERELVAAINWRGGTTYYADSVKGRFTISRDNAKNTVYLQINSLKPDDTAVYYCAATHWAYSRVPYDYWGQGTQVSVSS”, for which the “polyreactivity (PSR sort gate)” value is reported as “high polyreactivity”.
With “QVQLVESGGGLVQAGGSLRLSCASSGFTFLINAMGWYRQAPGKERDLVAAIRSGGSTNYADSVKGRFTISRDNAKNTVYLQMNSLKPEDTAVYYCAARRYYPYKYRYGYWGQCTQVTVSS” the entry was “high polyreactivity”.
Take “QVQLVESGGGLVQAGGSLRLSCASSGFTFTSYAMGWYRQAPGKERELVAAISSSGGSTYYADSVKGRFTISRDNAKNTVYLQMNSLKPEDTAVYYCAAEYGYGEMDSWGQGTQVTVSS”: the “polyreactivity (PSR sort gate)” value was “high polyreactivity”.
In the case of “QVQLVESGGGLVQAGGSLRLSCASSGFTFYIYVMGWYRQAPGKEREWVAAISSRGGSTYYADSVKGRFTISRDNAKNTVNSQMNSLKPEDTAVYYCNAVHYVLYGDYDYWGQGTQVTVSS”, the “polyreactivity (PSR sort gate)” value is “high polyreactivity”.
As for “QVQLVESGGGLVQAGGSLRLSCASSGFTINWNDMGWYRQAPGKERELVAAISGGASTYYADSVKGRFTISRDNAKNTVYLQMNSLKPEDTAVYYCAADLDEWGYLFDYWGQGTQVTVSS”, the “polyreactivity (PSR sort gate)” value is “low polyreactivity”.
On to “QVQLVESGGGLVQAGGSLRLSCASSGFTLYGYTKGWYRQAPGKERELVAAISGSGGRTYYADSVKGRFTISRDNAKNTVYLHMNTLKPEDNAVYYCAADSRGTCDGYDYWGQGTQVTVSS”, for which the “polyreactivity (PSR sort gate)” value is listed as “high polyreactivity”.
To “QVQLVESGGGLVQAGGSLRLSCASSGITFDKYAMGWYRQAPGKERELVAAISGSDGSTYYADSVKGRFTISRDNAKNTVYLQNNSLKPEDTAVYYCAAESEYAGTYEYDYWGQGNQVTVSS” belongs “low polyreactivity”; to “QVQLVESGGGLVQAGGSLRLSCASSGITFILYAMGWYRQAPGKDRELVASITSGGSTDYADSVKGRFTISRDNAKNTVYFQMNSLKPEDTAVYYCAARYVYPYWYGDYYWGQGTQVTVSS”, “low polyreactivity”; to “QVQLVESGGGLVQAGGSLRLSCASSGLIFYHYAMGWYRQAPGKERELVAAISWRGGTTYYADSVKGRFTISSDNAKNTVYLQMNSLKPEDTAVYYCNALLRSPGLGYDYWGQGTQVTVSS”, “high polyreactivity”.
With “QVQLVESGGGLVQAGGSLRLSCASSGLTFWPYVKGWYRQAPGKERELVAAIEDTGITYYADSVKGRFTISRDNAKNTVYLQMNSLTPDDTAVYYCATDWDYYFPWIYPSDAGPEDGYWGQGTQVTVSS” the entry was “low polyreactivity”; with “QVQLVESGGGLVQAGGSLRLSCASSGNTFKYDAMGWYRQAPGKERELVAAITWNGARTYYADSVKGRFTISRDNANYTGYLQMNRLKAEVTAVYYCNARQGYRFDYWGQGTQVSVSS”, “high polyreactivity”.
For the sequence “QVQLVESGGGLVQAGGSLRLSCASSGRIFDGYAMVWYRQAPGKERELVATISSGGSTYYADSVKGRFTISRDNAKNTVYLQMNSLKPEDTAVYYCAADSWVQFDYWGQGTQVTVSS”, the “polyreactivity (PSR sort gate)” value is given as “low polyreactivity”.
On to “QVQLVESGGGLVQAGGSLRLSCASSGRIFDYNAKGWYRQAPGKERELVAAINSGGSTYADSVKGRFTISRDNAKNTVDLQMNSLKPEDTAVYYCAKSLGQTDWEYDSWGQGTQVTVSS”, for which the “polyreactivity (PSR sort gate)” value is reported as “low polyreactivity”.
As to “QVQLVESGGGLVQAGGSLRLSCASSGRIFFTNAMGWYRQAPGKERELVAAIRSSGGRTYYADSVKGRFTISRDNAKNTVYLQMNSLKPEDTAVYYCNVVDGRHISHYNYWGQGTQVTVSS”, the “polyreactivity (PSR sort gate)” value is on record as “high polyreactivity”.
On to “QVQLVESGGGLVQAGGSLRLSCASSGRIFGLYAMGWNRQAPGKERELVAAISRGGGSTYYADSVKGRFTISRDNAKNTVYLQMNSLKPEDTAVYYCATGLGYFSRLDYWGQGTQVTVSS”, for which the “polyreactivity (PSR sort gate)” value is on record as “low polyreactivity”.
For the sequence “QVQLVESGGGLVQAGGSLRLSCASSGRIFGTYAMGWYRQAPGKERELVARIRTSGSTNYADSVKGRFTISRDNAKNTVYLQMNSLKPEDTAVYYCAADRRYYSAYEYWGQGTQVTVSS”, the “polyreactivity (PSR sort gate)” value is given as “high polyreactivity”.
As to “QVQLVESGGGLVQAGGSLRLSCASSGRIFGVYAMGWYRQAPGKERELVAAITRGASTYYADSVKGRFTISRDNAKNTVYLQMNSLKPEDTAVYYCAVSQDRGIYRKYDYWGQGTQVTVSS”, the “polyreactivity (PSR sort gate)” value is reported as “high polyreactivity”.
With “QVQLVESGGGLVQAGGSLRLSCASSGRIFRVNGMGWYRQAPGKESELVATITGSGGSTYYADSVKGRFTISRDNAKNTVYLQMNSLKPEDTAVYYCAAVSYWPTDRYYSWGQGTQVTVSS” the entry was “low polyreactivity”.
In the case of “QVQLVESGGGLVQAGGSLRLSCASSGRIFRYNTMGWYRPAPGKERELVADITSSDSSTYYADSVKGRFTISRDNAKNTVDLQMNSLKPEETAVYYCAARDSGYGWRYSYWGQGTQVTVSA”, the “polyreactivity (PSR sort gate)” value is “low polyreactivity”.
On to “QVQLVESGGGLVQAGGSLRLSCASSGRIFWRNTMGWYRQAPVKETEFVASINGSGGSTSYADSVKGRFTISRDNAMNTVYLQMISLKPEDTEVDYCATDVTYQDVQLDYWGQRTQVTVSS”, for which the “polyreactivity (PSR sort gate)” value was “low polyreactivity”.
As for “QVQLVESGGGLVQAGGSLRLSCASSGRIFYYNAMGWYRQAPGKERELVAAISKRGGITSYADSVKGRFTISRDNAKNTVYLPMNSLKPEDTAVYYCAADLVPWRGGYYYWGQGTLVTVSS”, the “polyreactivity (PSR sort gate)” value is given as “high polyreactivity”.
In the case of “QVQLVESGGGLVQAGGSLRLSCASSGRNFCIYGMAWYRQAPGKERELVAAISYDSGSTYYADSVTGRFTISRDNAKNTVYLQMNSLNPEDTAVYYCAAEWGLVIYSTYGYDYWGQGTQVTVSS”, the “polyreactivity (PSR sort gate)” value is “low polyreactivity”.
To “QVQLVESGGGLVQAGGSLRLSCASSGRTFFRNPMGWYRQAPGKERELVAAISKRGGSTYYADSVKGRFTISRDNAKNTVYLQMISLSPEDTAVYYCNADPRTVGLDYWGQGTQVTVSS” belongs “high polyreactivity”; to “QVQLVESGGGLVQAGGSLRLSCASSGRTFLINAMGWYRQAPWKERELVATISRSGGSTYYADSVKGRFTISRDNAKITVYLQMNSLKPEDTAVYYCAALVRIGYYYWGQGTQVTVSS”, “high polyreactivity”; to “QVQLVESGGGLVQAGGSLRLSCASSGRTFRYYAMGWYRQAPGKERELVAAIRSGGITNYADSVKGRFTISRDNAKNTVYLQMNSLKPEDTAVYYCAVETPSTWFSGWGYDYDYWGQGTQVTVSS”, “high polyreactivity”.
With “QVQLVESGGGLVQAGGSLRLSCASSGRTFTHYAMGWYRQAPGKERELVASISDGGRTHYADSVTGRFTISRDNAKNTVYLQMNSLKPEDTAVYYCATDRYPTRRYDYWGQGTQVTVSS” the entry was “low polyreactivity”; with “QVQLVESGGGLVQAGGSLRLSCASSGRTFVWNAMGWYRQAPGKERELVAAIDWSGGSTYYADSVKGRFTISRDYAKITVYLQMNSLKPEDTAVYYCAKEYWYRALWYNYWGQGTQVTVSS”, “high polyreactivity”.
